# Test results: the nanobody polyreactivity screen of Harvey et al. (2022)
# Experiment: yeast display, Sf9 membrane polyspecificity reagent, FACS + sequencing; frameworks hold sequencing errors
# How it was run: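 Nanobodies came from a synthetic yeast display library in Saccharomyces cerevisiae BJ5465, induced with galactose for 36–48 hours and stained for 1 hour at 4 °C with 10% biotinylated, detergent-solubilized Sf9 membrane reagent. Cells were enriched on streptavidin microbeads and then FACS-sorted, with low and high (top ~1%) gates set on anti-HA fluorescence for expression and streptavidin fluorescence for reagent binding. Each polyreactivity label reflects the gate a clone came from. Genes were amplified by colony PCR, sequenced by MiSeq 2 × 250 and filtered by CDR length.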
row,Sequence,polyreactivity (PSR sort gate)
1,QVQLVESGGGLVQAGGSLRLSCAASGSTFGSYAMGWYRQAPGKERELVAAITQIGGSTYYADSVKGRFTISRDKAKNTVYLQMNSLKPEDTAVYYCAARYRYPGYYYWGQGTQVTVSS,high polyreactivity
2,QVQLVESGGGLVQAGGSLRLSCAASGSTFGSYGMGWYRQAPGKEREVVAVITYSGDRTYYADSVKGRFTISRDNAKNTVYLQMNSLKPEDTAVYYCAADRSYRVSEYDYWGQGTQVTVSS,low polyreactivity
3,QVQLVESGGGLVQAGGSLRLSCAASGSTFGTYAMGWYRQAPGKERELVAAISRRGGSTYYADSVKGRFTISRDNAKNTVYLQMNSLKPEDTAVDYCAARNFHPDDNYWGQGTQVTVSS,high polyreactivity
4,QVQLVESGGGLVQAGGSLRLSCAASGSTFGVNAMGWYRQAPGKERELVAAISSSGSSTYADSVKGRFTISRDNAKNTVYLQMNSLKPEDTAVYYCAAQSPAYYTKSYWGQGTQVTVSS,low polyreactivity
5,QVQLVESGGGLVQAGGSLRLSCAASGSTFGVNAMGWYRQAPGKERELVAAISSSGSSTYADSVKGRFTISRDNAKNTVYLQMNSLKPEDTAVYYCNKTTLLTVEYDYWGQGTQVTVSS,low polyreactivity
6,QVQLVESGGGLVQAGGSLRLSCAASGSTFGVNAMGWYRQAPGKERELVAAITRRGSSTYYADSVKGRFTNSRDNAKNTVYLQMNSLKPEDTAVYFCAADLHYRPGFRYGYWGQGTQVTVSS,high polyreactivity
7,QVQLVESGGGLVQAGGSLRLSCAASGSTFGVNAMGWYRQAPGKERELVAAITWSGDTTYYADSVKGRFTISRDNAKNTVYLQMNSLKPEDSAVYYCATYYYYPSWYLLYGDYNYWGQGTQVTVSS,low polyreactivity
8,QVQLVESGGGLVQAGGSLRLSCAASGSTFGVNAMGWYRQAPGKERELVASIRKRGGTTYYADSVKGRFTISRDNAKNTVYLQMNSLKPEDTAVYYCAAQYGDEVDYWGQGTQVTVSS,high polyreactivity
9,QVQLVESGGGLVQAGGSLRLSCAASGSTFGVYAMGWYRQAPGKDRELVAAISRSGGRTYYADSVKGRFTISRDNAKNSVYLQMNSLKPEDTAVYYCALYGGLGDRFRPRYYWGQGTQVTVSS,high polyreactivity
10,QVQLVESGGGLVQAGGSLRLSCAASGSTFGVYAMGWYRQAPGKERELVAAIRWSSGSTYYADSVKGRFTISRDNAKNTVYLQMNSLKPEDTAVYYCAKTRGIYNIRFGYWGQGTQVTVSS,high polyreactivity
11,QVQLVESGGGLVQAGGSLRLSCAASGSTFGWYAMGWYRQAPGKERELVASITWDGGRTYYADSVKGRFTISRDNAKNTVYLLMNSLKPEDTAVYYCAARGVSSPLNYWGQGTQVTVSS,low polyreactivity
12,QVQLVESGGGLVQAGGSLRLSCAASGSTFGWYTMGWYRQSPGKERELVAAITSRGTRTSYADSVKGRFTISRDYAKNTVYLQMNSLKPEDTAVYYCAARVFRGLGEYYWGQGTQVTVSS,high polyreactivity
13,QVQLVESGGGLVQAGGSLRLSCAASGSTFGWYVMGWYRQAPGKERELVAAISQRGGRTYYADSVKGRFSISRDNAKNTVYLQMNSLKPEDTAVYYCAAPGVRVGPTFPRQGYDYWGQGTQVTVSS,high polyreactivity
14,QVQLVESGGGLVQAGGSLRLSCAASGSTFGWYVMGWYRQAPGKEREYVASISGSGGSTYYADSVKGRFTISRDNAKNTVYLQMNSLKPEDTAVYYCAAETGWYDDWSIYDYWGHGTQVTVSS,low polyreactivity
15,QVQLVESGGGLVQAGGSLRLSCAASGSTFGWYVMGWYRQAPGTERELVASITGSGGSTYYADSVKGRFTISRDNAKNTVYLQMNSLKPVDSAVYYCGADTGWYDDWTHDYWGQGTQVTVSS,low polyreactivity
16,QVQLVESGGGLVQAGGSLRLSCAASGSTFGYNAMGWYRPAPGKERELVAAISWNGGSTYYADSVKGRFTISRDNAKTTVYLQMNSLKPEDTAVYYCAAEHRGYFTRYDYWGQGTQVTVSS,low polyreactivity
17,QVQLVESGGGLVQAGGSLRLSCAASGSTFGYNAMGWYRQAPGKERELVADITWRGGRTYYADSVKGRFTISRDNAKNTVYLQMNSLKPEDTAVYYCAATSRGSGQRPGEAIIDYYYWGLGTQVTVSS,high polyreactivity
18,QVQLVESGGGLVQAGGSLRLSCAASGSTFGYNGMGWYRQAPGKVRELVAAISGGARTYADSVKGRFTISRDNAKNTVYLQMNSLKPEDTAVYYCAADSPVSVTADDGYWGQGTQVTVSS,low polyreactivity
19,QVQLVESGGGLVQAGGSLRLSCAASGSTFGYYAMGWYRQAPGKEREFVAAITYGDGNTYYADSVKGRFTISRDNAKNTVYLQMNSLKPEDTAVYYCAKYYWAPTGAHGGYGYWGQGTQVTVSS,low polyreactivity
20,QVQLVESGGGLVQAGGSLRLSCAASGSTFGYYAMGWYRQAPGKERELVAAISYNTGSTYYADSVKGRFTISRDNAKNTVYLQMNSLKPEDTAVFYCAASRSRYSVNWYNYWGQGTQVTVSS,high polyreactivity
21,QVQLVESGGGLVQAGGSLRLSCAASGSTFGYYAMGWYRQAPGKERELVATINRSGGSTYYADSVKGRFSISRDNAKNTVYLQMNSLKPEDTAVYYCNKLAYAGFGYIGSGYWGQGTQVTVSS,low polyreactivity
22,QVQLVESGGGLVQAGGSLRLSCAASGSTFGYYAMGWYRQAPGKERELVAVIRRGGSTNYADSVKGRFTISRDNAKNTVYLQMNSLKPEDTAVYYCAKSQRGTVYSYYYWGQGTQVTVSS,high polyreactivity

row,Sequence,polyreactivity (PSR sort gate)
1,QVQLVESGGGLVQAGGSLRLSCAASGSTFGYYAMGWYRQAPGKERELVAVITSGGSTYYADSVKGRFTISRDNAKNTVFLQMNSLKPEDTAVYYCYARVQAVHYGYWGQGTQVTVSS,high polyreactivity
2,QVQLVESGGGLVQAGGSLRLSCAASGSTFGYYAMRWSRQAPGKERELVAAISGSGGSTYYADSVKGRFTISRDNAKNTVYLQMNSLKQEDTAVYYCATSWAGSEYYYWGQGTQVTVSS,high polyreactivity
3,QVQLVESGGGLVQAGGSLRLSCAASGSTFGYYTMGWYRQAHGKERELVAAISWGCGSTYYADSVKGRFTISRDNAKNTVYLQMNSLIPEDTAVYYCARTPVTSYKDDFYYWGQGTQVTVSS,low polyreactivity
4,QVQLVESGGGLVQAGGSLRLSCAASGSTFGYYTMGWYRQAPGKERELVAAISWSGGSTYYADSVKGRFTISRDNAKNTVYLQMNSLKPEDTAVYYCAALGYTYKYYSYYWGQGTQVTVSS,high polyreactivity
5,QVQLVESGGGLVQAGGSLRLSCAASGSTFGYYTMGWYRQAPGKERELVAAITWSGGSTYYADSVKGRFTISRDNAKNTVYLQMNSLKPEDTAVYYCADDDYWTPFGYWGQGTQVTVSS,low polyreactivity
6,QVQLVESGGGLVQAGGSLRLSCAASGSTFGYYTMGWYRQAPGKERELVASIDVSGDSTSYADSVKGRFTISRDNAKNTVYVQMNSLKPEDTAVYYCNTGRYPTSPTHNYWGQGTHVTVSS,low polyreactivity
7,QVQLVESGGGLVQAGGSLRLSCAASGSTFHGYTIGWSRQAPGKERELVAAISSRGTSTYYADSVKGRFTISRDNAMNTVYLQMNSLKTEDTAVYYCATRGWDKYWGQGTQVTVSS,high polyreactivity
8,QVQLVESGGGLVQAGGSLRLSCAASGSTFHLYAMGWNRQAPGKEREFVAAIRGRGGNTYADSVKGRFTISRDNAKNSGYLQMNSLKPEDTAVYYCAARTHYDSDYWGQGTQVTVSS,low polyreactivity
9,QVQLVESGGGLVQAGGSLRLSCAASGSTFHLYAMGWYRQAPGKEREFVAAIRGRGGNTYADSVKGRFTISRDNAKNTVYLQMHSLKPEDTAVYYCAAPLLRDLRSPYSYNYWGQGTQVTVSS,low polyreactivity
10,QVQLVESGGGLVQAGGSLRLSCAASGSTFHPNGMGWYRQAPGQEREFVAAIRRSGGSTYYADSVKGRFTISRDNAKNTVYLQMNSLKPEDTAVYYCAAKHYYYSPYVRYDPPPGYYWGQGTQVTVSS,high polyreactivity
11,QVQLVESGGGLVQAGGSLRLSCAASGSTFHRNSMGWYRQAPGKERELVASISIGGSTNYADSVKGRFTISRDNAKNTVYLQMNSLKPEDTAVYYCATEPNPRRPRVDYDYWGQGTQVTVSS,low polyreactivity
12,QVQLVESGGGLVQAGGSLRLSCAASGSTFHRYTMGWYRQAPGKEWELVAAISWSGGSTYYADSVKGRFTISRDNAKNTVYLQMNSLKPEDTAVYYCAAVKPAEALDYWGQGTQVTVSS,high polyreactivity
13,QVQLVESGGGLVQAGGSLRLSCAASGSTFHSYAIGWYRQAPGKEREFVAAITIRGGSTYYADSVKGRITISRDNAKNTVYLQMNSLKPEDNAVYYCAALVWGSYARWRYYCGQGTQVTVSS,high polyreactivity
14,QVQLVESGGGLVQAGGSLRLSCAASGSTFHVNAMGWYRQAPGKEREFVAAISWRTGSTYYADSVKGRFTISRDNAKNTVYLQRHSLKPEDTAVYYCAAKRSYSNYDYWGQGTQVTVSS,high polyreactivity
15,QVQLVESGGGLVQAGGSLRLSCAASGSTFHYYAMGWYRQAPGKERELVAAITRGGNTYYADSVKGRFTISRGNAKNTVYLQMNSLKPEDTAVYYCAKDNLFEAYRYDYWGQGTQVTVSS,low polyreactivity
16,QVQLVESGGGLVQAGGSLRLSCAASGSTFICKAMGWYRQAPGKERELVAAIDYRGGNTYYADSVKGRFTISRDYAKNSVYLHMNSLKPEHTAVYYCAARVVGYEYFYDYYYWGQGTQVTLSS,low polyreactivity
17,QVQLVESGGGLVQAGGSLRLSCAASGSTFIFNAMGWYRQAPGKERELVAGISSGSTYYADSVKGRFTISRDNAKNTVYLQMNSLIPEDTAVYSCATKLRRWRFYAAYDYWGQGTQVTVSS,high polyreactivity
18,QVQLVESGGGLVQAGGSLRLSCAASGSTFIFNAMGWYRQAPGKEWELVAGISSGSTYYADSVKGRFTISRDNAKNTVYLQMNSLKPEDTAVYYCATKLRRWRFYAAYDYWGQGTQVTVSS,high polyreactivity
19,QVQLVESGGGLVQAGGSLRLSCAASGSTFIFYSMGCYRQAPGKERELVASITSSSGPTYYADSVKGRFTISRDNAKNTVYLQMNSLKPEDTAVYYCAKRPIRYYHLLRGNYWGQGTQVTVSS,low polyreactivity
20,QVQLVESGGGLVQAGGSLRLSCAASGSTFIGNAMGWYRQAPGKERELVAAITSSGGSTYYADSVKGRFTISRDNAKNTVYLQMNSLKPEDTAVYYCAAKSRRTRRSYYWGQGTQVTVSS,high polyreactivity
21,QVQLVESGGGLVQAGGSLRLSCAASGSTFIGYAMGWYRKAPGKERELVAAITGGGRTNYADSVKGRFTISRDNAKNTVYLQMNSLKPEDTAVYYCAARGVTRGYAKPYYSRGDYWGQGTQVTVSS,low polyreactivity
